Legend:
[1] = biological target: T1, SARS-CoV-2 Omicron JD.1.1 spike (S-6P) (SARS-CoV-2 Omicron JD.1.1, S-GSAS/6P (furin cleavage site, residues 682–685) | F817P | A892P | A899P | …); assay: cryo-EM structure; details: both partners purified
T1 construct: also called JD.1.1 S-6P; Omicron JD.1.1 S-trimer (S-6P)

[2] = biological target: T2, SARS-CoV-2 Omicron LP.8.1 spike (S-6P) (SARS-CoV-2 Omicron LP.8.1, S-GSAS/6P (furin cleavage site, residues 682–685) | F817P | A892P | A899P | …); assay: cryo-EM structure; details: both partners purified
T2 construct: also called LP.8.1 S-6P; Omicron LP.8.1.1 spike (S-6P)

Binder	stoichiometry N [1]	stoichiometry N [2]
C092 Fab (Fab, V domains shown) VH: QVQLVQSGAEVKKPGSSVKVSCKASGGSFTNHFISWVRQAPGQGLEWMGRIIPILGTANYAQNFQGRVMMTADKSTSTAYMELSSLRSEDTAVYYCARDSGYSGYGSTYYMDVWGKGTTVTVSS VL: QSVLTQPPSVSGAPGQRVTISCTGSNSNIGAGYDVHWYQQLPGAAPKLLIYGNNNRPSGVPDRFSGSKSDTSASLAITGLQVEDEADYYCQSYDSSLSDSVFGSGTKVTVL	3 Fabs per S-trimer	–
R102-9 Fab (Fab, V domains shown) VH: EVQLVESGGGLVQPGGSLRLSCAASGIIVSRNYMSWVRQAPGKRPEWVSLIYPGGSTFYADSVKGRFTISRDNSKNMLFLQMNSLRAEDTAVYYCARDLTIRGEASWGQGTLVTVSS VL: EIVMTQSPATLSVSPGERATLSCRASQSFNSNLAWYQQKPGQAPRLLIYGASTRATGIPARFSGSGSGTEFTLTISSLQSEDFAVYYCQQYGDWPLWTFGQGTKVEIK	3 Fabs per S-trimer	–
ZL525 Fab (Fab, V domains shown) V domain 1: QVQLVQSGAEVKKPGSSMKVSCQASGGTFSSHPISWIRQAPGQGLEWMGRIIPIAGMTDYGQKFQGRITITADTSTSTSYVELRGLRSQDTAFYYCAKDVGYSDYGSAYYFHTWGQGTLITVSS V domain 2: QSVLTQPPSVSGAPGQRVTISCTGSNSNIGAGYDVHWYQQLPGTAPKLLIYRNNKRPSGVPDRFSGSKSDTSASLAITGLQAEDEAHYYCQSFDSSLGGSLFGGGTKLAVL	–	3 Fabs per S-trimer
ZL58 Fab (Fab, V domains shown) VH: QLELVQSGGGLVQPGGSLRLSCAASEIAVSRNYMNWVRQGPGKGLEWVSIIYPGGSTFYADSVKGRFTISTDDSKNTLYLQMDSLSTDDTALYYCARQGPNGRNDFWGQGTLVTVSS VL: DIQMTQSPSSLSASAGERVTITCQASQDINMYLNWYQQKPGKAPKLLIYDASNLETGVPSRFSGSGSVTEFTFTISSLQPEDIGTYYCHQYDSFPPTFGGGTKVDLK	–	3 Fabs per S-trimer

— paper doi:10.64898/2025.12.10.693372 (bioRxiv, 2025)
